How the values were obtained:
[1] = biological target: T1, human CD137-Fc fusion protein (Fc-fusion of the full extracellular domain of human CD137, R&D Systems 838-4B) (human, UniProt Q07011 24-186); test: SPR (Biacore T200, 37 C), huCD137-Fc captured via anti-human IgG-Fc antibody, mutein as analyte, 1:1 model
T1 construct: extracellular domain; Bought protein; also called huCD137-Fc; KD huCD137; not shown: Fc of human IgG (captured by an anti-human IgG-Fc antibody)
Method: Prior to the protein measurements three regeneration cycles were performed for conditioning purposes. Regeneration of the derivatized chip surface was achieved by applying 3M MgCl₂ for 60 s followed by 10 mM glycine, pH 1.7 for 180 s. Anti-human IgG-Fc antibody was utilized to immobilize huCD137-Fc in a subsequent step and taken from the human antibody capture kit (GE Healthcare, BR-1008-39). It was immobilized on a CM5 sensor chip using standard amine coupling chemistry and the immobilization buffer included in the kit (10 mM sodium acetate pH 5.0), resulting in a ligand density of about 13000 resonance units (RU). The reference channel was treated accordingly.
HuCD137-Fc at a concentration of 0.5 μg/mL was captured on this surface for 180 s at a flow rate of 10 μL/min in HBS-EP+ buffer. No target protein was applied to the reference channel. Subsequently, the lipocalin muteins were applied in an appropriate dilution series in HBS-EP+ buffer at a flow rate of 30 μL/min. Regeneration of the derivatized chip surface was achieved as described above. Data were evaluated with Biacore T200 Evaluation software (V 2.0). Double referencing was used and the 1:1 Binding model was used to fit the raw data.

[2] = biological target: T2, human CD137 expressed on cells (human, UniProt Q07011 24-255); test: FACS on CHO cells stably transfected with human CD137; anti-lipocalin primary and Alexa488 secondary antibody
T2 construct: whole, on cells; also called CHO-huCD137; CHO::hCD137
T2 sequence (Q07011 24-255): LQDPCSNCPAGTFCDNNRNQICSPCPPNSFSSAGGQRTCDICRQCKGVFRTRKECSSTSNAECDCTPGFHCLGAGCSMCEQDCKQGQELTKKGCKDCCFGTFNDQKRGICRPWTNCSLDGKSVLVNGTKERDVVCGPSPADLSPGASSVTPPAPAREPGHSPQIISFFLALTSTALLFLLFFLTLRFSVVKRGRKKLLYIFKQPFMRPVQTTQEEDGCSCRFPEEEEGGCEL
Method: (§1) To perform the experiment, CD137-positive and negative Flp-In CHO cells were incubated with lipocalin muteins, and bound mutein was labeled using anti-lipocalin primary antibodies and fluorescently labeled secondary antibodies, which were detected by FACS analysis as described in the following.
(§2) 1×10⁵ cells per well were pre-incubated for 1 h in ice-cold PBS containing 5% fetal calf serum (PBS-FCS). Subsequently, a dilution series of lipocalin muteins and negative controls typically ranging from 10 μM to 1 nM was added to the cells and incubation was continued on ice for 1 h. Cells were washed twice in ice-cold PBS using centrifugation at 300 g and then incubated with a rabbit anti-lipocalin primary antibody (Pieris, (polyclonal rabbit anti-hNGAL and rabbit anti-hTLC; Pieris) for 30 min on ice. Cells were washed twice in ice-cold PBS, re-suspended in PBS-FCS and incubated 30 min on ice with a secondary anti-rabbit antibody labelled with the fluorescent dye Alexa488 (Life Technologies). Cells were subsequently washed and analyzed using a Guava easyCyte HT Flow cytometer. Typically, a gate was set to exclude non-viable cells and 5.000 events were recorded. Numerical results are expressed as the geometric mean of the fluorescence intensity.

[3] = biological target: T2, human CD137 expressed on cells; test: cell-based or functional assay
[4] = biological target: T1, human CD137-Fc fusion protein …; test: SPR, huCD137-Fc captured via anti-human IgG-Fc antibody
Source text: FIG. 1: provides typical measurements of on-rate and off-rate by surface plasmon resonance (SPR) for the interaction of various representative lipocalin muteins (SEQ ID NOs indicated in the graph) with human CD137 (Fc-fusion) as the target. The targets were immobilized via an anti-human IgG-Fc antibody, which was in turn immobilized on a sensor chip using standard amine coupling chemistry. The lipocalin muteins were employed as the soluble analyte which was flowed at different concentrations across the chip surface. […] The dissociation constants resulting from a fit (1:1 binding model) of the depicted data for all SEQ ID NOs are provided in Table 1.
Prior to the protein measurements three regeneration cycles were performed for conditioning purposes. Regeneration of the derivatized chip surface was achieved by applying 3M MgCl₂ for 60 s followed by 10 mM glycine, pH 1.7 for 180 s. Anti-human IgG-Fc antibody was utilized to immobilize huCD137-Fc in a subsequent step and taken from the human antibody capture kit (GE Healthcare, BR-1008-39). […]
HuCD137-Fc at a concentration of 0.5 μg/mL was captured on this surface for 180 s at a flow rate of 10 μL/min in HBS-EP+ buffer. […] Data were evaluated with Biacore T200 Evaluation software (V 2.0). […]

[5] = biological target: T2, human CD137 expressed on cells; test: FACS on CHO cells stably transfected with human CD137
Method: as §1, §2

Binder	Kd [1]	EC50 [2]	further results
lipocalin mutein of SEQ ID NO: 16 (designed binder, not shown: small tags and cut ends, expressed in E. coli with a C-terminal Strep-tag II; also called hNGAL mutein) QDSTSDLIPAPPLSKVPLQQNFQDNQFHGKWYVVGQAGNIKLREDSKMMATIYELKEDKSYDVTGVSFDDKKCTYAIMTFVPGSQPGEFTLGKIKSFPGHTSSLVRVVSTNYNQHAMVFFKFVFQNREEFYITLYGRTKELTSELKENFIRFSKSLGLPENHIVFPVPIDQCIDG	30 nM	–	–
lipocalin mutein of SEQ ID NO: 18 (designed binder, not shown: small tags and cut ends, expressed in E. coli with a C-terminal Strep-tag II; also called hNGAL mutein) QDSTSDLIPAPPLSKVPLQQNFQDNQFHGKWYVVGQAGNIRLREDKDPHKMMATIYELKEDKSYDVTGVTFDDKKCTYAISTFVPGSQPGEFTLGKIKSFPGHTSSLVRVVSTNYNQHAMVFFKFVFQNREEFYITLYGRTKELTSELKENFIRFSKSLGLPENHIVFPVPIDQCIDG	77 nM	13.7 nM	–
lipocalin mutein of SEQ ID NO: 12 (designed binder, not shown: small tags and cut ends, expressed in E. coli with a C-terminal Strep-tag II; also called hNGAL mutein) QDSTSDLIPAPPLSKVPLQQNFQDNQFHGKWYVVGQAGNIKLREDKDPNKMMATIYELKEDKSYNVTGVTFDDKKCTYAISTFVPGSQPGEFTLGKIKSFPGHTSSLVRVVSTNYNQHAMVFFKFVFQNREEFYITLYGRTKELTSELKENFIRFSKSLGLPENHIVFPVPIDQCIDG	36 nM	–	–
lipocalin mutein of SEQ ID NO: 13 (designed binder, not shown: small tags and cut ends, expressed in E. coli with a C-terminal Strep-tag II; also called hNGAL mutein) QDSTSDLIPAPPLSKVPLQQNFQDNQFHGKWYVVGQAGNIRLREDKDPIKMMATIYELKEDKSYDVTMVKFDDKKCMYDIWTFVPGSQPGEFTLGKIKSFPGHTSSLVRVVSTNYNQHAMVFFKFVFQNREEFYITLYGRTKELTSELKENFIRFSKSLGLPENHIVFPVPIDQCIDG	2 nM	4.3 nM	IFN-γ production, coated mutein, anti-CD3 and anti-CD28 stimulation [3]: ≤ 2.5 fold over negative control; IFN-γ production, coated mutein, anti-CD3 stimulation only [3]: ~2.5 fold over negative control; IL-2 production, coated mutein, anti-CD3 and anti-CD28 stimulation [3]: ~6 fold over negative control; maximum response at 6.25 µg/mL coating concentration (readout not named, probably IL-2), anti-CD3 stimulation only [3]: 15 fold over negative control; proliferation rate (BrdU), coated mutein, anti-CD3 and anti-CD28 stimulation [3]: ≤ 14 fold over negative control; proliferation rate (BrdU), coated mutein, anti-CD3 stimulation only [3]: ≤ 4 fold over negative control
lipocalin mutein of SEQ ID NO: 15 (designed binder, not shown: small tags and cut ends, expressed in E. coli with a C-terminal Strep-tag II; also called hNGAL mutein) QDSTSDLIPAPPLSKVPLQQNFQDNQFHGKWYVVGQAGNIKLREDKDPNKMMATIYELKEDKSYDVTAVAFDDKKCTYDIWTFVPGSQPGEFTLGKIKSFPGHTSSLVRVVSTNYNQHAMVFFKFVFQNREEFYITLYGRTKELTSELKENFIRFSKSLGLPENHIVFPVPIDQCIDG	23 nM	7.8 nM	–
lipocalin mutein of SEQ ID NO: 14 (designed binder, not shown: small tags and cut ends, expressed in E. coli with a C-terminal Strep-tag II; also called hNGAL mutein) QDSTSDLIPAPPLSKVPLQQNFQDNQFHGKWYVVGQAGNIRLREDKDPNKMMATIYELKEDKSYDVTAVAFDDKKCTYDIWTFVPGSQPGEFTLGKIKSFPGHTSSLVRVVSTNYNQHAMVFFKFVFQNREEFYITLYGRTKELTSELKENFIRFSKSLGLPENHIVFPVPIDQCIDG	9 nM	4.5 nM	–
negative control, wild-type like lipocalin mutein SEQ ID NO: 4 (other, captured by anti-hNGAL antibody in the T-cell assays) QDSTSDLIPAPPLSKVPLQQNFQDNQFHGKWYVVGLAGNAILREDKDPQKMYATIYELKEDKSYNVTSVLFRKKKCDYWIRTFVPGSQPGEFTLGNIKSYPGLTSYLVRVVSTNYNQHAMVFFKKVSQNREYFKITLYGRTKELTSELKENFIRFSKSLGLPENHIVFPVPIDQCIDG	–	–	binding result [4]: no binding; binding result [5]: no binding

The next lines start with results.

Kd [1]	EC50 [2]	Binder	further results
98 nM	–	lipocalin mutein of SEQ ID NO: 19 (designed binder, not shown: small tags and cut ends, expressed in E. coli with a C-terminal Strep-tag II; also called hNGAL mutein) QDSTSDLIPAPPLSKVPLQQNFQDNQFHGKWYVVGQAGNIKLREDKDPNKMMATIYELKEDKSYDVTGVTFDDKKCTYAISTLVPGSQPGEFTFGKIKSFPGHTSSLVRVVSTNYNQHAMVFFKFVFQNREEFYITLYGRTKELTSELKENFIRFSKSLGLPENHIVFPVPIDQCIDG	–
50 nM	17.9 nM	lipocalin mutein of SEQ ID NO: 17 (designed binder, not shown: small tags and cut ends, expressed in E. coli with a C-terminal Strep-tag II; also called hNGAL mutein) QDSTSDLIPAPPLSKVPLQQNFQDNQFHGKWYVVGQAGNIKLREDKDPVKMMATIYELKEDKSYDVTGVTFDDKKCRYDISTFVPGSQPGEFTFGKIKSFPGHTSSLVRVVSTNYNQHAMVFFKFVFQNREEFYITLYGRTKELTSELKENFIRFSKSLGLPENHIVFPVPIDQCIDG	–
138 nM	18 nM	lipocalin mutein of SEQ ID NO: 20 (designed binder, not shown: small tags and cut ends, expressed in E. coli with a C-terminal Strep-tag II; also called hNGAL mutein) QDSTSDLIPAPPLSKVPLQQNFQDNQFHGKWYVVGQAGNIRLREDKDPSKMMATIYELKEDKSYDVTAVTFDDKKCNYAISTFVPGSQPGEFTLGKIKSFPGHTSSLVRVVSTNYNQHAMVFFKFVFQNREEFYITLYGRTKELTSELKENFIRFSKSLGLPENHIVFPVPIDQCIDG	–

— US20180148484A1 (Pieris, published 2018)
